Measurements: patent US20210292393A1 (published 2021)
Where two headings read alike, the source gives them in different places.

Tests used:
Experiment in all cases: BLI
[1] = target: T1, SARS-CoV-2 spike ectodomain (UniProt P0DTC2 14-1213)
[2] = target: T1, SARS-CoV-2 spike ectodomain; remark: listed apart in the source
[3] = target: T1, SARS-CoV-2 spike ectodomain; remark: listed apart in the source

B1: Fab 494 (Fab, V domains shown)
VH: EVQLVESGGGLVQPGGSLRLSCAASGFTVSSNYMSWVRQAPGKGLEWVSVIYSGGSTFYADSVKGRFTISRDNSKNTLYLQMNSLRAEDTAVYYCARDSGDQLLDYWGQGTLVTVSS
VL: DIQLTQSPSFLSASVGDRVTITCRASQGISSYLAWYQQKPGKAPKLLIYAASTLQSGVPSRFSGSGSGTEFTLTISSLQPEDFATYYCQQLNSYPPFTFGPGTKVDIKR
Kd [1]: 5.9 nM

B2: Fab 419 (Fab, V domains shown)
VH: QVQLVQSGAEVKKPGASVKVSCKASGYTFTSYYMHWVRQAPGQGLEWMGIINPSGGSTSYAQKFQGRVTMTRDTSTSTVYMELSSLRSEDTAVYYCARDWTQSSGYDYYYGLDVWGQGTTVTVSS
VL: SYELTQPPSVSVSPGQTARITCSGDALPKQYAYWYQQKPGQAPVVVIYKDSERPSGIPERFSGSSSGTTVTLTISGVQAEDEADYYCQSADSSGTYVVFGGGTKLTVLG
Kd [2]: 365 nM

B3: Fab 483 (Fab, V domains shown)
VH: QVQLQESGPGLVKPSETLSLTCTVSGGSISSYYWSWIRQPPGKGLEWIGYIYYSGSTNYNPSLKSRVTISVDTSKNQFSLKLSSVTAADTAVYYCARAPEEKSSEIGELVGWGWFDPWGQGTLVTVSS
VL: not shown
Kd [3]: 23.1 nM
